Experimental findings from patent publication US20050164926A1 (published 2005) are described below.

This assay concerns the target porcine trypsin (porcine, UniProt P00761 9-231). As to the kind of experiment: cell-based or functional assay.

Chain of porcine trypsin (P00761 9-231 limits assumed): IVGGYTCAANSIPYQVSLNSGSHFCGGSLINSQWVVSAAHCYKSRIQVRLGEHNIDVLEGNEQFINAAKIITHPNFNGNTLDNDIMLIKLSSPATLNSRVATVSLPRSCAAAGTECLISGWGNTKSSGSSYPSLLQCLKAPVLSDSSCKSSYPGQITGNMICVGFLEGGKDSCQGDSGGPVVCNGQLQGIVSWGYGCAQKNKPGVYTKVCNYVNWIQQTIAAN

B1: ANV-KAPP (other)
chain: AQVLRGTVTDFPGFDERADAETLRKAMKGLGTDEESILTLLTSRSNAQRQEISAAFKTLFGRDLLDDLKSELTGKFEKLIVALMKPSRLYDAYELKHALKGAGTNEKVLTEIIASRTPEELRAIKQVYEEEYGSSLEDDVVGDTSGYYQRMLVVLLQANRDPDAGIDEAQVEQDAQALFQAGELKWGTDEEKFITIFGTRSVSHLRKVFDKYMTISGFQIEETIDRETSGNLEQLLLAVVKSIRSIPAYLAETLYYAMKGAGTDDHTLIRVMVSRSEIDLFNIRKEFRKNFATSLYSMIKGDTSGDYKKALLLLAGEDDEVCSEQAETGPCRAMISRWYFDVTEGKCAPFFYGGCGGNRNNFDTEEYCMAVCGSAI
Consider B1, for which the “apparent stoichiometry of inhibition (amidolysis of S2444, titration of trypsin activity)” value was 1 mol inhibitor per mol enzyme.
